According to the supplement of paper PMC11246515:
± gives the standard deviation of the averaged measurements.

Assay: total protein half-life in vivo (active degradation + dilution); higher = more stable protein
[1] = E. coli NCM3722 delta-lon, growth: N-lim chemostat, doubling time 6 h
[2] = E. coli NCM3722 delta-smpB, growth: N-lim chemostat, doubling time 6 h
[3] = wild type E. coli NCM3722, growth: C-lim chemostat, doubling time 6 h
[4] = wild type E. coli NCM3722, growth: C-lim chemostat, doubling time 12 h
[5] = wild type E. coli NCM3722, growth: N-lim chemostat, doubling time 6 h
[6] = wild type E. coli NCM3722, growth: N-lim chemostat, doubling time 12 h
[7] = wild type E. coli NCM3722, growth: P-lim chemostat, doubling time 6 h
[8] = wild type E. coli NCM3722, growth: P-lim chemostat, doubling time 12 h
[9] = E. coli NCM3722 delta-clpP delta-lon delta-hslV, growth: N-lim chemostat, doubling time 6 h
[10] = E. coli NCM3722 delta-hslV, growth: N-lim chemostat, doubling time 6 h
[11] = wild type E. coli NCM3722, growth: C-lim chemostat, doubling time 3 h
[12] = E. coli NCM3722 delta-clpP, growth: N-lim chemostat, doubling time 6 h

MIEWIIRRSVANRFLVLMGALFLSIWGTWTIINTPVDALPDLSDVQVIIKTSYPGQAPQIVENQVTYPLTTTMLSVPGAKTVRGFSQFGDSYVYVIFEDGTDPYWARSRVLEYLNQVQGKLPAGVSAELGPDATGVGWIYEYALVDRSGKHDLADLRSLQDWFLKYELKTIPDVAEVASVGGVVKEYQVVIDPQRLAQYGISLAEVKSALDASNQEAGGSSIELAEAEYMVRASGYLQTLDDFNHIVLKASENGVPVYLRDVAKVQIGPEMRRGIAELNGEGEVAGGVVILRSGKNAREVIAAVKDKLETLKSSLPEGVEIVTTYDRSQLIDRAIDNLSGKLLEEFIVVAVVCALFLWHVRSALVAIISLPLGLCIAFIVMHFQGLNANIMSLGGIAIAVGAMVDAAIVMIENAHKRLEEWQHQHPDATLDNKTRWQVITDASVEVGPALFISLLIITLSFIPIFTLEGQEGRLFGPLAFTKTYAMAGAALLAIVVIPILMGYWIRGKIPPESSNPLNRFLIRVYHPLLLKVLHWPKTTLLVAALSVLTVLWPLNKVGGEFLPQINEGDLLYMPSTLPGISAAEAASMLQKTDKLIMSVPEVARVFGKTGKAETATDSAPLEMVETTIQLKPQEQWRPGMTMDKIIEELDNTVRLPGLANLWVPPIRNRIDMLSTGIKSPIGIKVSGTVLADIDAMAEQIEEVARTVPGVASALAERLEGGRYINVEINREKAARYGMTVADVQLFVTSAVGGAMVGETVEGIARYPINLRYPQSWRDSPQALRQLPILTPMKQQITLADVADIKVSTGPSMLKTENARPTSWIYIDARDRDMVSVVHDLQKAIAEKVQLKPGTSVAFSGQFELLERANHKLKLMVPMTLMIIFVLLYLAFRRVGEALLIISSVPFALVGGIWLLWWMGFHLSVATGTGFIALAGVAAEFGVVMLMYLRHAIEAVPSLNNPQTFSEQKLDEALYHGAVLRVRPKAMTVAVIIAGLLPILWGTGAGSEVMSRIAAPMIGGMITAPLLSLFIIPAAYKLMWLHRHRVRK
total protein half-life in vivo [1]: > 8 h | total protein half-life in vivo [2]: 6.09 h | total protein half-life in vivo [3]: 7.07 h | total protein half-life in vivo [4]: > 16 h | total protein half-life in vivo [5]: 5.97 ± 0.71 h | total protein half-life in vivo [6]: 12.6 ± 3.8 h | total protein half-life in vivo [7]: 6.31 ± 0.89 h | total protein half-life in vivo [8]: 12.7 ± 0.39 h

MIEWQDLHHSELSVSQLYALLQLRCAVFVVEQNCPYQDIDGDDLTGDNRHILGWKNDELVAYARILKSDDDLEPVVIGRVIVSEALRGEKVGQQLMSKTLETCTHHWPDKPVYLGAQAHLQNFYQSFGFIPVTEVYEEDGIPHIGMAREVIQA [P0AEH3]
total protein half-life in vivo [9]: 4.51 ± 0.43 h | total protein half-life in vivo [10]: 3.93 ± 1.4 h | total protein half-life in vivo [1]: 3.58 ± 0.13 h | total protein half-life in vivo [2]: 2.23 ± 0.14 h | total protein half-life in vivo [11]: 2.35 ± 0.064 h | total protein half-life in vivo [3]: 4.3 ± 0.27 h | total protein half-life in vivo [4]: 7.04 ± 0.82 h | total protein half-life in vivo [5]: 2.68 ± 0.086 h | total protein half-life in vivo [6]: 3.85 ± 0.064 h | total protein half-life in vivo [7]: 4.54 ± 0.38 h | total protein half-life in vivo [8]: 9.98 ± 1.5 h

MIFLMTKDSFLLQGFWQLKDNHEMIKINSLSEIKKVGNKPFKVIIDTYHNHILDEEAIKFLEKLDAERIIVLAPYHISKLKAKAPIYFVSRKESIKNLLEITYGKHLPHKNSQLCFSHNQFKIMQLILKNKNESNITSTLNISQQTLKIQKFNIMYKLKLRRMSDIVTLGITSYF
total protein half-life in vivo [9]: 4.62 ± 0.1 h | total protein half-life in vivo [12]: 3.05 ± 0.11 h | total protein half-life in vivo [10]: 1.91 ± 0.33 h | total protein half-life in vivo [1]: 1.03 ± 0.022 h | total protein half-life in vivo [2]: 3.52 ± 0.093 h | total protein half-life in vivo [5]: 2.29 ± 0.07 h | total protein half-life in vivo [6]: 3.82 ± 0.15 h | total protein half-life in vivo [7]: 2.34 ± 0.054 h | total protein half-life in vivo [8]: 6.16 ± 0.74 h

MIFTLRPYQQEAVDATLNHFRRHKTPAVIVLPTGAGKSLVIAELARLARGRVLVLAHVKELVAQNHAKYQALGLEADIFAAGLKRKESHGKVVFGSVQSVARNLDAFQGEFSLLIVDECHRIGDDEESQYQQILTHLTKVNPHLRLLGLTATPFRLGKGWIYQFHYHGMVRGDEKALFRDCIYELPLRYMIKHGYLTPPERLDMPVVQYDFSRLQAQSNGLFSEADLNRELKKQQRITPHIISQIMEFAATRKGVMIFAATVEHAKEIVGLLPAEDAALITGDTPGAERDVLIENFKAQRFRYLVNVAVLTTGFDAPHVDLIAILRPTESVSLYQQIVGRGLRLAPGKTDCLILDYAGNPHDLYAPEVGTPKGKSDNVPVQVFCPACGFANTFWGKTTADGTLIEHFGRRCQGWFEDDDGHREQCDFRFRFKNCPQCNAENDIAARRCRECDTVLVDPDDMLKAALRLKDALVLRCSGMSLQHGHDEKGEWLKITYYDEDGADVSERFRLQTPAQRTAFEQLFIRPHTRTPGIPLRWITAADILAQQALLRHPDFVVARMKGQYWQVREKVFDYEGRFRLAHELRG
total protein half-life in vivo [9]: 5.4 ± 0.095 h | total protein half-life in vivo [12]: 4.39 ± 0.49 h | total protein half-life in vivo [10]: 3.55 ± 0.12 h | total protein half-life in vivo [1]: 3.9 ± 0.26 h | total protein half-life in vivo [2]: 3.3 ± 0.36 h | total protein half-life in vivo [11]: 2.79 ± 0.44 h | total protein half-life in vivo [3]: 4.38 ± 0.35 h | total protein half-life in vivo [4]: 7.46 ± 0.87 h | total protein half-life in vivo [5]: 3.38 ± 0.3 h | total protein half-life in vivo [6]: 5.32 ± 0.49 h | total protein half-life in vivo [7]: 5.37 ± 0.26 h | total protein half-life in vivo [8]: 10.1 ± 0.45 h

MIGRISRFMTRFVSRWLPDPLIFAMLLTLLTFVIALWLTPQTPISMVKMWGDGFWNLLAFGMQMALIIVTGHALASSAPVKSLLRTAASAAKTPVQGVMLVTFFGSVACVINWGFGLVVGAMFAREVARRVPGSDYPLLIACAYIGFLTWGGGFSGSMPLLAATPGNPVEHIAGLIPVGDTLFSGFNIFITVALIVVMPFITRMMMPKPSDVVSIDPKLLMEEADFQKQLPKDAPPSERLEESRILTLIIGALGIAYLAMYFSEHGFNITINTVNLMFMIAGLLLHKTPMAYMRAISAAARSTAGILVQFPFYAGIQLMMEHSGLGGLITEFFINVANKDTFPVMTFFSSALINFAVPSGGGHWVIQGPFVIPAAQALGADLGKSVMAIAYGEQWMNMAQPFWALPALAIAGLGVRDIMGYCITALLFSGVIFVIGLTLF
total protein half-life in vivo [12]: 5.89 h | total protein half-life in vivo [1]: 5.21 h | total protein half-life in vivo [2]: 5.88 h | total protein half-life in vivo [5]: 5.5 h | total protein half-life in vivo [6]: 15.3 h

MIIIRYLVRETLKSQLAILFILLLIFFCQKLVRILGAAVDGDIPANLVLSLLGLGVPEMAQLILPLSLFLGLLMTLGKLYTESEITVMHACGLSKAVLVKAAMILAVFTAIVAAVNVMWAGPWSSRHQDEVLAEAKANPGMAALAQGQFQQATNGSSVLFIESVDGSDFKDVFLAQIRPKGNARPSVVVADSGHLTQLRDGSQVVTLNQGTRFEGTALLRDFRITDFQDYQAIIGHQAVALDPNDTDQMDMRTLWNTDTDRARAELNWRITLVFTVFMMALMVVPLSVVNPRQGRVLSMLPAMLLYLLFFLIQTSLKSNGGKGKLDPTLWMWTVNLIYLALAIVLNLWDTVPVRRLRASFSRKGAV [P0AF98]
total protein half-life in vivo [9]: 6.78 ± 0.092 h | total protein half-life in vivo [1]: 6.05 ± 0.35 h | total protein half-life in vivo [2]: 6.02 ± 0.49 h | total protein half-life in vivo [11]: 3.17 ± 0.17 h | total protein half-life in vivo [3]: 5.94 ± 0.35 h | total protein half-life in vivo [4]: 10.4 h | total protein half-life in vivo [5]: 5.9587 ± 0.0048 h | total protein half-life in vivo [6]: 12.6 ± 0.32 h | total protein half-life in vivo [7]: 6.85 ± 0.98 h | total protein half-life in vivo [8]: 12.6 ± 0.65 h
